Assay: soluble on expression in E. coli; label from the status in PepcDB or PDB records
For “GSRAQSSPAAPASLSAPEPASQARVLSSSETPARTLPFTTGLIYDSVMLKHQCSCGDNSRHPEHAGRIQSIWSRLQERGLRSQCECLRGRKASLEELQSVHSERHVLLYGTNPLSRLKLDNGKLAGLLAQRMFVMLPCGGVGVDTDTIWNELHSSNAARWAAGSVTDLAFKVASRELKNGFAVVRPPGHHADHSTAMGFCFFNSVAIACRQLQQQSKASKILIVDWDVHHGNGTQQTFYQDPSVLYISLHRHDDGNFFPGSGAVDEVGAGSGEGFNVNVAWAGGLDPPMGDPEYLAAFRIVVMPIAREFSPDLVLVSAGFDAAEGHPAPLGGYHVSAKCFGYMTQQLMNLAGGAVVLALEGGHDLTAICDASEACVAALLGNRVDPLSEEGWKQKPNLNAIRSLEAVIRVHSKYWGCMQRLAS”, the “soluble on expression in E. coli” value was “soluble”.
For “MGSDKIHHHHHHMFLNLIATAGNDRIRDFLVNDWYRSLKENVDLSKTDVLVINYGLTGLPKEVINFPAVERSGLINNTRFINLAIFLENHPEYDQILFCDGGDIIFQSDISHLFEEHRDAFRAVVEQLSPPIDLVVKEEDLVNGKEIKSFLSNKKLFNVGVIIAPREGFLELARTMERRLKNINVWGGDTVIGNYVIYKNPHVELPSKYNFIPSTAREKFYVKDSKFYLENGELIPIVHNAGRYRFLRPVKDFGYGPGKNRVNKFNIWMFRMLFSVSNFLKMK”, the “soluble on expression in E. coli” value was “not soluble”.
With “MGSDKIHHHHHHMFQRAFLLYNGKAGNGKTDKYLKDVVPRALQSIGELTIIPSKEKGDIESICREREVDLIIVMGGDGTVHECINGLAVSPSPPPLVVLPTGTCNDFARSLRIPLSFVEAGNLLESGTWKRVPLIQANHRCYTNFLGMGIITTASEGTNPELKETFGRFSYFLSALQSLREPSPFSYTITSTKGSMSGQAILLLVMHGQFLGTLPVQLDENAIEQPFVTIYIVKEGGLPFIKDLVKGLVSPAMVNESDHIDRMTCDQCQIETEPVLSIDMDGEIYMKTPVNITTVGKVITVRVPDVNVTSDADHTIGGAQDTP” the “soluble on expression in E. coli” value was “not soluble”.
For “MNDNEKQLDLRIRRTHKLLWDSLFELMTQSKQKYSTITINQICDRAMVHRTTFYKHFEDKDALLTFGFKRYGKMIAEIPVSDRLSKPFQVMEQFLHHEEIGKILETQMSDEQFINRTQYLSHETRKQEIEALNQLHKNHTMPNDLIIEFYSGAITSLSAWWFKSERKVSAAEMDRYLHQLINRDIFQFEKE”, the “soluble on expression in E. coli” value was “not soluble”.
With “MGSDKIHHHHHHMAGSAGGLSASDGDFFLCDLFDPVPKGDLGTMEHPVFSLATRPDRRILTYEHNGVEITVTPSVKGRATIFDKDILIFCTSQLMAAINANRPVSRTLQLTAHDLLLATGRDRSGDGYKRLRAAFERLAGTRITTNLITGGVEVTQGFGLIEAWQIVRRTRNGRMVSVSVTLSEWLYRAALTKSVLTLSRQYFRMRKPLERRIYELARKHCGRQNEWRVSVDTLLKKSGSASPRRVFRAMLREMIAADALPDYHLQEEPGDILRVTLRDAVIEAAGRPIVSSDTLNQARALMPGWDVYVLEAEWRNWWAATGRPHLRSPDKAFLGWVRTQAARA” the “soluble on expression in E. coli” value was “not soluble”.
For “MTAPSLDNWEKRKRFVELPRKRQMAFIDTGGPGPVLLMLHGFSDTSRSFSIIEPYFQEYRLIAPDLPGHGASSVGHGFHVADFAETIDRFLTLMGVSRFFVLGHSMGAMTAIELAARRSSSVRGLALISGTLEPDFGTESKLARDILALRDPIKPAGGFLHDWYSCSRPVNEEFLFRMKRDAANMAATTWHGVLKAFAETDLHYSASKINVPVLCLAGSEDPLFDDSHRQQLFEAFPLAQTVTMPGHGHNPHWENPQGVSTLVTEFFAEVMTDASPVRVETAADKR”, the “soluble on expression in E. coli” value was “not soluble”.
For “MATDSWALAVDEQEAAAESLSNLHLKEEKIKPDTNGAVVKTNANAEKTDEEEKEDRAAQSLLNKLIRSNLVDNTNQVEVLQRDPNSPLYSVKSFEELRLKPQLLQGVYAMGFNRPSKIQENALPLMLAEPPQNLIAQSQSGTGKTAAFVLAMLSQVEPANKYPQCLCLSPTYELALQTGKVIEQMGKFYPELKLAYAVRGNKLERGQKISEQIVIGTPGTVLDWCSKLKFIDPKKIKVFVLDEADVMIATQGHQDQSIRIQRMLPRNCQMLLFSATFEDSVWKFAQKVVPDPNVIKLKREEETLDTIKQYYVLCSSRDEKFQALCNLYGAITIAQAMIFCHTRKTASWLAAELSKEGHQVALLSGEMMVEQRAAVIERFREGKEKVLVTTNVCARGIDVEQVSVVINFDLPVDKDGNPDNETYLHRIGRTGRFGKRGLAVNMVDSKHSMNILNRIQEHFNKKIERLDTDDLDEIEKIAN”, the “soluble on expression in E. coli” value was “soluble”.
In the case of “MLTFKYLLASLLILLVSSQTWGQQSYGNSNQGYGQQQQGFSGFGQGSATNRQGMTGQGLLESSYQQGYGQNQGSMQGYSQQGYGGNSQQDYGYSQSQGSGMGVQGYGGSSQSYGQQAFAQQQRPQQGFQSNGFSGQQASGSMNSFGGQGGYGQNQNGFGGQSGFSGQSGWGSNSLSSANSNGNNNQGSSSGYQNNQGRHQGQGGGHSSSSNSVMSNNGYSSNSGYGNNNGPTPSFLNNVSSSAAQDYYNIVNNKSLTTNQINEQASNWASANSVQAQYIQYETNRSAIHTQATQNVSDIINNLATVQASIEGIQSNTSSSENDRQSAFQALQQAHPMEYSVLTSLQNQHEQTQYARMGSNGNSNSNYGNSNFNSNYGNNGYNHNGNNYFESTTATSAATKKKTTKATSG”, the “soluble on expression in E. coli” value is reported as “not soluble”.
In the case of “MEGDGSDPEPPDAGEDSKSENGENAPIYCICRKPDINCFMIGCDNCNEWFHGDCIRITEKMAKAIREWYCRECREKDPKLEIRYRHKKSRERDGNERDSSEPRDEGGGRKRPVPDPDLQRRAGSGTGVGAMLARGSASPHKSSPQPLVATPSQHHQQQQQQIKRSARMCGECEACRRTEDCGHCDFCRDMKKFGGPNKIRQKCRLRQCQLRARESYKYFPSSLSPVTPSESLPRPRRPLPTQQQPQPSQKLGRIREDEGAVASSTVKEPPEATATPEPLSDEDLPLDPDLYQDFCAGAFDDHGLPWMSDTEESPFLDPALRKRAVKVKHVKRREKKSEKKVMERKEERYKRHRQKQKHKDKWKHPERADAKDPASLPQCLGPGCVRPAQPSSKYCSDDCGMKLAANRIYEILPQRIQQWQQSPCIAEEHGKKLLERIRREQQSARTRLQEMERRFHELEAIILRAKQQAVREDEESNEGDSDDTDLQIFCVSCGHPINPRVALRHMERCYAKYESQTSFGSMYPTRIEGATRLFCDVYNPQSKTYCKRLQVLCPEHSRDPKVPADEVCGCPLVRDVFELTGDFCRLPKRQCNRHYCWEKLRRAEVDLERVRVWYKLDELFEQERNVRTAMTNRAGLLALMLHQTIQHDPLTTDLRSSADR”, the “soluble on expression in E. coli” value is reported as “soluble”.
With “MAHHHHHHMNIFKNIYNTEMMSNNNTVDVNMMDNNPAARLEELRTIMKKNKIDVYILINSDEHNSEIINEKDKKIVKITNYSGADGILIVTKDKPILYVNALYELQAMNELDQNLFTLRISRIDNRDEIFETISSLEFNTIAFDGKNTSVVFYEKLRKALLNAYPKKKIVEKIIYNNNFDDVNKKDDENVLNFLVLEKSLVEIKDYPVNNKTLYIHDRKYNGACAGEKIDKLKQSLMYDIKNVDNLLLSELDEIAYLLNLRGYDYQYSPLFYSYLLFQFDREEQDFSKIVFFTTVKNLPADVKNLLEINKVIVKEYEEIVPYLRDVVIPSIPKHNDDNPDFKKYDISLSPYINLMIYKLFDRKNVLLQNSPVVKMKAVKNDVEIDNMKQAHILDGLALLQFFHWCEQKRKTKELFNETEMSLRHKVDYFRSTKKNFIFPSFSTISASGPNAAVIHYECTDKTNATIKPAIYLLDSGGQYLHGTTDVTRTTHFGEPTAEEKRIYTLVLKGHLRLRKVIFASYTNSSALDFIARENLFNNFMDYNHGTGHGVGLTLNVHEGGCSIGPVGGAPLKKNMVLSNEPGYYMKDKFGVRIENMQYVISKEITDTTEYLSFDDLTMYPYEKKLLDFSLLTNQEIKELNEYHTTIRNTLLPLVKQSPQEYGESVEKYLIEITEPIAIHNN” the “soluble on expression in E. coli” value was “soluble”.
In the case of “MAPDVFTVVAEPQRRRILERLRAGHASVGELVDQLALPQPTVSKHLRVLRQAGFVTCRTAAQQRIYSLHREPFDEFDAWLQPYRRLWANHLDALGRHLESKETPS”, the “soluble on expression in E. coli” value is reported as “not soluble”.
For “MLSRKIIEESDIYLATSTRDPELFPLVIDHGEGVWIYDVDGNKYLDFTSGIGVNNLGWPSHPEVIKIGIEQMQKLAHAAANDFYNIPQLELAKKLVTYSPGNFQKKVFFSNSGTEAIEASIKVVKNTGRKYIIAFLGGFHGRTFGSISLTASKAVQRSIVGPFMPGVIHVPYPNPYRNPWHINGYENPSELVNRVIEFIEDYIFVNLVPPEEVAGIFFEPIQGEGGYVIPPKNFFAELQKLAKKYGILLVDDEVQMGLGRTGKLFAIENFNTVPDVITLAKALGGGIMPIGATIFRKDLDFKPGMHSNTFGGNALACAIGSKVIDIVKDLLPHVNEIGKIFAEELQGLADDVRGIGLAWGLEYNEKKVRDRIIGESFKRGLLLLPAGRSAIRVIPPLVISEEEAKQGLDILKKVIKVVK”, the “soluble on expression in E. coli” value was “soluble”.
With “KVILKEDAEMLDEVVVTGYGMSQKRSLMTNSISKLDDKVLQNAAMSNAAQSLQGTVSGLRVTNTSGKPGSSPNIVLRGGASINKNLEGPLVVVDGLVRSMDDINPSDIESIQVLKDAASTAIYGARANNGVILVTTKKGVEGR” the “soluble on expression in E. coli” value was “not soluble”.
In the case of “MPMTGRCREPNCHAVVVRPLHYCTKHADKEAAYQASRERWTNRTSNSKRYKDYDRMRSKDPFKAEQHKFYQGKQWRSIREIALRRDNYLCQYCLNHKRVRTGNIGDHIVPYEVEPENRTNLANIAIACSKCHTAKTKWEQLYYGTGMGNKLKNAIPIRNVKDLPDFQKNIRLEHHHHHH”, the “soluble on expression in E. coli” value is reported as “not soluble”.
In the case of “MRESPYRILEEALRPHLGARAQVVLEEGLKRLGKRPEELSEKDAETLLKGLIFRELQARLPAAQARRAVEEALARLAPAPEGGLEALERGLARFGLYVDWPEVGRLRALVNRLRREPDPRLLQEGLALLDHLEEKLEEALLRQAQDLAHLEEALERVRPLGGPKVRRLESLIQIVREAHREGTLAQGEVERARGPGPEAPQVPGLQSRPARHPPRDGL”, the “soluble on expression in E. coli” value is reported as “soluble”.
With “MAHHHHHHMNKSTVAGELRNIFSQGTNAYTVELYNAFYRDGTLSLVMEYMDWGNLEELIAICPTIPEPACAYIASQILHALQILHTKANHPTETDKKGRRQIHRDIKPANVMLSKNGVVKLTDFGIAASAETIGVNSFVGTATYMSPERIQGRNYSTPSDIWSVGVLTAQLLLGRFPFSAAEGGFMALLRQVTECCSLSLVDQCACSQKAEDFINHCICRNPDDRSTAIELLQHEWIVQNASNGKDVLTGLLGTVGEPAASSESDNS” the “soluble on expression in E. coli” value was “not soluble”.
In the case of “MKVAVTGRPGVGKTTLCLKVHESLKDKMTVGGFITKEVRRDGVRVGFKLVDLSSGNEEWLARVGEGKARVGKYAVNVEGLEEFLDSVRTDADLVIIDEVGPMELKSRKFVRFVENLMGRERLLFTIHLKSRHRLLDRIRREFKVYVIDESNRNRIAEEITRILEGLEHHHHHH”, the “soluble on expression in E. coli” value is reported as “soluble”.
In the case of “MGSSHHHHHHSQDPMDYFNIKQNYYTGNFVQCLQEIEKFSKVTDNTLLFYKAKTLLALGQYQSQDPTSKLGKVLDLYVQFLDTKNIEELENLLKDKQNSPYELYLLATAQAILGDLDKSLETCVEGIDNDEAEGTTELLLLAIEVALLNNNVSTASTIFDNYTNAIEDTVSGDNEMILNLAESYIKFATNKETATSNFYYYEELSQTFPTWKTQLGLLNLHLQQRNIAEAQGIVELLLSDYYSVEQKENAVLYKPTFLANQITLALMQGLDTEDLTNQLVKLDHEHAFIKHHQEIDAKFDELVRKYDTSN”, the “soluble on expression in E. coli” value is reported as “soluble”.
For “MNARLENLMQWLKEKNVEAAFLTSTPNVFYMTNFHCEPHERLLGMFVFQEKEPILICPKMEEGQARNAGWAHEIIGFTDTDRPWDMIAKAIKDRGINANAVAIEKELLNVERYEELTKLFPNAAFTSAEEKVRELRLIKDEKELSILREAAKMADYAVEVGVNAIKEDRSELEVLAIIEHELKTKGIHKMSFDTMVLAGANSALPHGIPGANKMKRGDFVLFDLGVIIDGYCSDITRTVAFGEISEEQTRIYNTVLAGQLQAVEACKPGVTLGAIDNAARSVIADAGYGDFFPHRLGHGLGISVHEYPDVKAGNESPLKEGMVFTIEPGIYVPNVGGVRIEDDIYITKDGSEILTKFPKELQFVK”, the “soluble on expression in E. coli” value was “soluble”.

Reference: the DeepSol protein solubility set
